Assay [1] has as its target T1, mouse IL-23 (mouse, UniProt Q9EQ14 22-196; P43432 23-335).
T1 sequence (looked up) 1: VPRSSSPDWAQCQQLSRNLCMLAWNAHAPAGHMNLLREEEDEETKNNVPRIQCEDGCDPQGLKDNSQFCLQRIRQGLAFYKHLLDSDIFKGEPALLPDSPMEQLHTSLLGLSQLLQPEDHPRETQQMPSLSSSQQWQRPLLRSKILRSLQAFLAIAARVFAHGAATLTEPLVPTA
T1 sequence (looked up) 2: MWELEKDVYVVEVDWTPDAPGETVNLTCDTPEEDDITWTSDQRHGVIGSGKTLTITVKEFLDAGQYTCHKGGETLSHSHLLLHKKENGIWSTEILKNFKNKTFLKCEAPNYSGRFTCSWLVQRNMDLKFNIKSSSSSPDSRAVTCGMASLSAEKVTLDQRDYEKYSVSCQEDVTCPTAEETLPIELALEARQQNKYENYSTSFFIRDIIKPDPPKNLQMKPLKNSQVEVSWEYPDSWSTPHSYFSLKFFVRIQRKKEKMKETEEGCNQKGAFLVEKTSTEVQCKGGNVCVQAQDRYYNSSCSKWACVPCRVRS
Kind of assay: SPR (Biacore T200), antibody captured on Protein A, steady-state affinity model, 37 C, n=2. The method, then:
Affinity and kinetics of Bispecific Antibody 1 to human, cynomolgus monkey, mouse, rat, and rabbit IL-23 are measured using a Biacore T200 instrument (BIAcore® AB, Upsala, Sweden). Briefly, a protein-A coupled CM5 chip is generated using standard amine-coupling protocols. Bispecific Antibody 1 is diluted to 1 μg/mL in running buffer, and approximately 100 RU is captured to the chip surface. A concentration series of each ligand is injected over all flow cells at 100 μL/minute for 180 seconds followed by a 900 second dissociation phase followed by chip regeneration. Data is analyzed in Biacore T200 Evaluation Software Version 1.0 by flow-cell 1 reference subtraction along with 0 nM blank subtraction. Human, cynomolgus monkey, and rabbit IL-23 data are fit globally using a “1:1 (Langmuir) Binding” binding model to determine the on-rate (kₒₙ) and off-rate (koff) for each ligand. The affinity (KD) is calculated from the binding kinetics according to the relationship KD=koff/kₒₙ. […] Stoichiometry of binding is calculated according to the relationship: Stoichiometry of binding is calculated according to the relationship: Stoichiometry=[RUₘₐₓ/RU_{Bispecific Antibody 1}]/[MWantigen/MW_{Bispecific Antibody 1}] where MWantigen is the molecular weight of human IL-23 and MW_{Bispecific Antibody 1} is 150 kDa. […]

Assay [2] has as its target T2, mouse/rat CGRP (mouse/rat, UniProt P01256 83-119 (rat entry)).
T2 construct: also used as the target of the rat dermal blood flow assay (endogenous rat CGRP)
T2 peptide (looked up): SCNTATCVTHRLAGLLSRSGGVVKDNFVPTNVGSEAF
The assay is described as follows: SPR (Biacore T100 or T200), antibody captured on Protein A, CGRP as analyte, 37 C, n=1. The method, then:
(§1) Affinity and kinetics of Bispecific Antibody 1 to human/cynomolgus monkey, mouse/rat, and rabbit CGRP are measured using a Biacore T100 or T200 instrument (BIAcore® AB, Upsala, Sweden). Briefly, a protein-A coupled CM5 chip is generated using standard amine-coupling protocols. […] A concentration series of each ligand is injected over all flow cells at 70-100 μL/minute for 180 seconds followed by a 1500-1800 second dissociation phase followed by chip regeneration.
(§2) Data is analyzed by flow-cell 1 reference subtraction along with 0 nM blank subtraction. The on-rate (kₒₙ) and off-rate (koff) for each ligand are fit globally using a “1:1 (Langmuir) Binding” binding model. The affinity (KD) is calculated from the binding kinetics according to the relationship KD=koff/kₒₙ. Stoichiometry of binding is calculated according to the relationship: Stoichiometry=[RUₘₐₓ/RU_{Bispecific Antibody 1}]/[MWantigen/MW_{Bispecific Antibody 1}] where MWantigen is the molecular weight of human CGRP and MW_{Bispecific Antibody 1} is 150 kDa.
For orientation: In SPR one partner is held on a chip, and binding of the other changes the refractive index at the surface.

Assay [3] has as its target rabbit CGRP (rabbit). The assay is described as above. The method, then: as §1, §2
For assay [4], the target named is T3, human CGRP (human/cynomolgus monkey CGRP) (human, not fully specified).
T3 construct: also called human Calcitonin Gene Related Peptide; human CGRP peptide (Bachem H-1470)
T3 peptide: T2 peptide (looked up) with S1A, N3D, D25N, E35K
The assay is described as follows: SPR (BIAcore 3000), antibody captured on Protein A, after CGRP injections, 25 C.

The target of assay [5] is T3, human CGRP (human/cynomolgus monkey …). Kind of assay: SPR (Biacore T100 or T200), antibody captured on Protein A, CGRP as analyte, 37 C, n=3. The method, then:
as §1, §2

In assay [6] the target is T4, human IL-27 (human, UniProt Q8NEV9 29-243; Q14213 21-229).
T4 sequence (looked up) 1: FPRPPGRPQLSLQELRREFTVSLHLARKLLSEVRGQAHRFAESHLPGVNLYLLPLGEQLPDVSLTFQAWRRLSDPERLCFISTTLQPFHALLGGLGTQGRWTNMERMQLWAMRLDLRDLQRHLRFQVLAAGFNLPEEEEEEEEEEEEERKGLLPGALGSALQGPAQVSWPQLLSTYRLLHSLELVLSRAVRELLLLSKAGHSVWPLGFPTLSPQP
T4 sequence (looked up) 2: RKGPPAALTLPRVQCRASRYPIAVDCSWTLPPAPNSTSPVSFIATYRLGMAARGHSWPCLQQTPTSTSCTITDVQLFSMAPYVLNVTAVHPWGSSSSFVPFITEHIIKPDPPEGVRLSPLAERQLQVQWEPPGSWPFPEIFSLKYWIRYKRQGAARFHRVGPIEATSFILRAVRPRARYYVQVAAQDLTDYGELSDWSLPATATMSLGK
The assay is described as follows: SPR (BIAcore 2000), antibody captured on Protein A.

Assay [7] deals with T5, human IL-12 (human, UniProt P29459 23-219; P29460 23-328).
T5 sequence (looked up) 1: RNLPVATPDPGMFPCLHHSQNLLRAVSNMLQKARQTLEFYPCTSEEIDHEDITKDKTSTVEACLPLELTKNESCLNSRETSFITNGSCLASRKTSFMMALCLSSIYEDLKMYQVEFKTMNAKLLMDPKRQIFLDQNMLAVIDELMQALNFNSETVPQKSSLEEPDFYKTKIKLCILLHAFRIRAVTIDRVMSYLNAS
T5 sequence (looked up) 2: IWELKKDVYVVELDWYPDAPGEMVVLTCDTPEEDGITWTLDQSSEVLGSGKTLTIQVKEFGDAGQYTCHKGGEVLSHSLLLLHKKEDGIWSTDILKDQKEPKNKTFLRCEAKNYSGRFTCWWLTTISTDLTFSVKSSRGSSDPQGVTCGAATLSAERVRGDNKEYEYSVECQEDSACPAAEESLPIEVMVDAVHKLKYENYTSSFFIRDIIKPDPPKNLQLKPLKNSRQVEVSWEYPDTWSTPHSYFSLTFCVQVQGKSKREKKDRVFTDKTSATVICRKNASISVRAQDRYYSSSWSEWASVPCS
Kind of assay: SPR (BIAcore 2000), antibody captured on Protein A.

For assay [8], the target named is T6, human IL-35 (human, UniProt P29459 23-219; Q14213 21-229).
T6 sequence (looked up) 1: T5 sequence (looked up) 1
T6 sequence (looked up) 2: T4 sequence (looked up) 2
The assay is described as follows: SPR (BIAcore 2000), antibody captured on Protein A.

Assay [9] concerns the target T7, rabbit IL-23 (rabbit, UniProt G1SSM0 20-191).
T7 construct: not shown: The rabbit p40 subunit (IL-12B) of the heterodimer; Any tag or linker of the reagent is also unstated
T7 sequence (p19): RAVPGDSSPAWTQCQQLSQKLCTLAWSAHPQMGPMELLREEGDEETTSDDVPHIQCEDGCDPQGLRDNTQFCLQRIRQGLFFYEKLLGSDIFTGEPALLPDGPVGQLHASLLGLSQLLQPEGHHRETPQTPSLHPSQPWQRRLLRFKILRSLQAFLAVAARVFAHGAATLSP
The assay is described as follows: SPR (Biacore T200), antibody captured on Protein A, IL-23 as analyte, 37 C, n=1. The protocol:
Affinity and kinetics of Bispecific Antibody 1 to human, cynomolgus monkey, mouse, rat, and rabbit IL-23 are measured using a Biacore T200 instrument (BIAcore® AB, Upsala, Sweden). Briefly, a protein-A coupled CM5 chip is generated using standard amine-coupling protocols. Bispecific Antibody 1 is diluted to 1 μg/mL in running buffer, and approximately 100 RU is captured to the chip surface. A concentration series of each ligand is injected over all flow cells at 100 μL/minute for 180 seconds followed by a 900 second dissociation phase followed by chip regeneration. Data is analyzed in Biacore T200 Evaluation Software Version 1.0 by flow-cell 1 reference subtraction along with 0 nM blank subtraction. Human, cynomolgus monkey, and rabbit IL-23 data are fit globally using a “1:1 (Langmuir) Binding” binding model to determine the on-rate (kₒₙ) and off-rate (koff) for each ligand. The affinity (KD) is calculated from the binding kinetics according to the relationship KD=koff/kₒₙ. Mouse IL-23 binding data is fit using a “Steady State Affinity” binding model to determine affinity (KD). Stoichiometry of binding is calculated according to the relationship: Stoichiometry of binding is calculated according to the relationship: Stoichiometry=[RUₘₐₓ/RU_{Bispecific Antibody 1}]/[MWantigen/MW_{Bispecific Antibody 1}] where MWantigen is the molecular weight of human IL-23 and MW_{Bispecific Antibody 1} is 150 kDa.

Residue numbers refer to the chain shown, from its start.

B1: Bispecific Antibody 1 (bispecific antibody, human IgG1, kappa, lambda, L234A L235A)
heavy 1: QVQLVQSGAEVKKPGSSVKVSCKASGYTFGNYWMQWVRYAPGQGLEWMGAIYEGTGKTVYIQKFADRVTITADKSTSTAYMELSSLRSEDTAVYYCARLSDYVSGFGYWGRGTTVTVSSASTKGPSVFPLAPCSKSTSGGTAALGCLVKDYFPEPVTVSWNSGALTSGVHTFPAVLQSSGLYSLSSVVTVPSSSLGTQTYICNVNHKPSNTKVDKKVEPDSGDKTHTCPPCPAPEAAGGPSVFLFPPKPKDTLMISRTPEVTCVVVDVSHEDPEVKFNWYVDGVEVHNAKTKPREEQYNSTYRVVSVLTVLHQDWLNGKEYKCKVSNKALPAPIEKTISKAKGQPREPQVYTLPPSRGDMTKNQVQLTCLVKGFYPSDIAVEWESNGQPENNYKTTPPVLDSDGSFFLASKLTVDKSRWQQGNVFSCSVMHEALHNHYTQKSLSLSPG
light 1: DIQMTQSPSSLSASVGDRVTITCRASKDISKYLNWYQRKPGDAPKLLIYYTSGYHSGVPSRFSGSGSGTDFTLTISSLQPEDFATYYCQQGDALPPTFGGGTKVEIKRTVAAPSVFIFPPSKEQLKSGTASVVCLLNNFYPREAKVQWKVDNALQSGNSQESVTEQDSKDSTYSLSSTLTLSKADYEKHKVYACEVTHQGLSSPVTKSFNRGEC
heavy 2: QVQLVQSGAEVKKPGSSVKVSCKASGYPFTRYVMHWVRKAPGQGLEWMGYINPYNDGVNYNEEFKGRVTITADESTSTAYMELSSLRSEDTAVYYCARNWDTGLWGQGTTVTVSSASTKGPSVFPLAPSSKSTSGGTAALGCLVKDYFPEPVTVSWNSGALTSGVATGPAVLQSSGLYSLSSVVTVPSSSLGTQTYICNVNHKPSNTKVDKKVEPKSCDKTHTCPPCPAPEAAGGPSVFLFPPKPKDTLMISRTPEVTCVVVDVSHEDPEVKFNWYVDGVEVHNAKTKPREEQYNSTYRVVSVLTVLHQDWLNGKEYKCKVSNKALPAPIEKTISKAKGQPREPQVSTLPPSREEMTKNQVSLMCLVYGFYPSDIAVEWESNGQPENNYKTTPPVLDSDGSFFLYSVLTVDKSRWQQGNVFSCSVMHEALHNHYTQKSLSLSPG
light 2: RIQMTQSPSSLSASVGDRVTITCKASDHIGKFLTWYQDKPGKAPKLLIYGATSKLTGVPSRFSGSGSGTDFTLTISSLQPEDFATYYCQQYWSTPFTFGGGTKVEIKGQPKAAPSVTLFPPSSEELQANKATLVCYISDFYPGAVTVAWKADSSPVKAGVETTTPSKQSNNKYAAWSYLSLTPEQWKSHRSYSCQVTHEGSTVEKTVAPTEC
notes: Heterodimeric IgG1 with one arm for CGRP and one arm for the p19 subunit of IL-23; also called exemplified bispecific antibody; anti-CGRP/anti-IL-23 IgG bispecific antibody
For orientation: Kd means a measure of binding affinity in units of concentration. For orientation: koff means the rate constant with which the complex falls apart. The kon is the rate constant with which the complex forms. Turning to B1, the Kd was more than 100 nM in assay [1]; 0.169 nM in assay [2]; 0.021 nM in assay [3]; 0.0071 nM in assay [5]; 1020 nM in assay [9]. Also, the Stoichiometry in assay [2] was 0.8; in assay [3] it was 0.9; in assay [5], 1; in [9], 1. Moreover, the koff is 0.00097 s⁻¹ in assay [2], 0.00047 s⁻¹ in assay [3], 7.2e-05 s⁻¹ in [5] and 0.018 s⁻¹ in assay [9]. Moreover, the kon in [2] came out at 5.7e+06 M⁻¹ s⁻¹; in [3], 2.3e+07 M⁻¹ s⁻¹; in assay [5], 1.5e+07 M⁻¹ s⁻¹; in assay [9] it was 17000 M⁻¹ s⁻¹. The “stoichiometry of human CGRP-to-Bispecific Antibody 1” value in [4] worked out at 0.8. Moreover, the binding result in [6], in assay [7] and in assay [8] was “no binding (tested: 400 nM)” in each case.

Source of the values: US20180319880A1 (Eli Lilly, published 2018).
